The target of assay [1] is T1, 14-3-3σ Clu3 (1-231) (human, UniProt P31947 1-231, 75EEK77 → AAA).
T1 sequence: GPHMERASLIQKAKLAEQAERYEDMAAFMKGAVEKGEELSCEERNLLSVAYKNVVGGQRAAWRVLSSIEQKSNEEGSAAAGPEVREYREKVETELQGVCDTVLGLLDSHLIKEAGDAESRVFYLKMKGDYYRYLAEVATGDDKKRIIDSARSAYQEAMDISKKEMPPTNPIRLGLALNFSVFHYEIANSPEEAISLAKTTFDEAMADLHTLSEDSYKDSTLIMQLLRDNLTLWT
The assay is described as follows: crystal structure.

For assay [2], the target named is T2, 14-3-3σ WT (1-231) (human, UniProt P31947 1-231).
T2 sequence: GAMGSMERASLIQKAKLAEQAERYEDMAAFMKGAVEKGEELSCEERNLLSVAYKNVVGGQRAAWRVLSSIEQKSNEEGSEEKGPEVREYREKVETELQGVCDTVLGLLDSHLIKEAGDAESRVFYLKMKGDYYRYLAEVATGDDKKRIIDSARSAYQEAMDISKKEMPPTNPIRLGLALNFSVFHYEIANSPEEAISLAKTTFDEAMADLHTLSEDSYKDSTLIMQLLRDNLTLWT
The assay is described as follows: other fluorescence titration.

[ ]: non-standard residue; d: D form. pS = N[C@@H](COP(=O)(O)O)C(=O)O

B1: pHSPB6(13-20) phosphopeptide (peptide, UniProt O14558 13-20, looked up)
peptide: H-RRA[pS]APLP-OH
SMILES: CC(C)C[C@H](NC(=O)[C@@H]1CCCN1C(=O)[C@H](C)NC(=O)[C@H](COP(=O)(O)O)NC(=O)[C@H](C)NC(=O)[C@H](CCCNC(=N)N)NC(=O)[C@@H](N)CCCNC(=N)N)C(=O)N1CCC[C@H]1C(=O)O
In the case of B1, in assay [1], the binding result is reported as “binds”.

B2: AEDANS-labeled phosphorylated full-length HSPB6 (natural protein, human, UniProt O14558 1-160, looked up)
chain: MEIPVPVQPSWLRRASAPLPGLSAPGRLFDQRFGEGLLEAELAALCPTTLAPYYLRAPSVALPVAQVPTDPGHFSVLLDVKHFSPEEIAVKVVGEHVEVHARHEERPDEHGFVAREFHRRYRLPPGVDPAAVTSALSPEGVLSIQAAPASAQAPPPAAAK
modifications: phosphoserine at 16; 1,5-I-AEDANS moiety on Cys46 (extent of labeling 90%)
As to B2, in assay [2], the Kd (commonly a measure of binding affinity in units of concentration) was determined as 560 ± 200 nM.

The record behind these values is article PMC5321513 (Structure (London, England : 1993), 2017).
